# Reference: doi:10.1101/2020.01.21.914390 (bioRxiv, 2020)
# B1: MBP tagged ERF4 fusion protein (ETHYLENE RESPONSIVE FACTOR4) (natural protein)
# chain: not shown
# Target: GST tagged MYB52 fusion protein (Arabidopsis thaliana, UniProt Q6R0C4 1-249)
# Test: pull-down
# GST tagged MYB52 fusion protein, sequence (Q6R0C4 whole entry, the tested form may be a part): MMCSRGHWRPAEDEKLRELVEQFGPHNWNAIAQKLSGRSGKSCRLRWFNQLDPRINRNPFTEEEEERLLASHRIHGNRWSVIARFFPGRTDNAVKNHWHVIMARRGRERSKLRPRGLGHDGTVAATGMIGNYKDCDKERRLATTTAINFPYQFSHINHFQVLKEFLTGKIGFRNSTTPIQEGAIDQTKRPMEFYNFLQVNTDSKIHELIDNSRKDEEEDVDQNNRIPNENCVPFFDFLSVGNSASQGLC
binder,measurement,value
B1,binding result,binds
